This is an account of results in the nanobody polyreactivity screen of Harvey et al. (2022).

This series in a line: yeast display, Sf9 membrane polyspecificity reagent, FACS + sequencing; frameworks hold sequencing errors. The gist of the method:
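Nanobodies came from a synthetic yeast display library in Saccharomyces cerevisiae BJ5465, induced with galactose for 36–48 hours and stained for 1 hour at 4 °C with 10% biotinylated, detergent-solubilized Sf9 membrane reagent. Cells were enriched on streptavidin microbeads and then FACS-sorted, with low and high (top ~1%) gates set on anti-HA fluorescence for expression and streptavidin fluorescence for reagent binding. Each polyreactivity label reflects the gate a clone came from. Genes were amplified by colony PCR, sequenced by MiSeq 2 × 250 and filtered by CDR length.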
For “QVQLVESGGGLVQGGGSLRLSCAASGRNFKYNTMGWYRQAPGKERDLVAAISLSSGSGGGTRYADSVKGRFTISRDNAKNSVYLQMNSLKPEDSAVYYCAARHRYTNEYDYWGHGTQVTVSS”, the “polyreactivity (PSR sort gate)” value was “low polyreactivity”.

Take “QVQLVESGGGLVQGGGSLRLSCAASGSIFTYNAIRSYRQAPGKERELVAAINTSGSTNYADSVKGRFTLSRDNAKNTVYLQMNSVKPEVTAVYYCAAGIVVTGYDYWGHGTQVTVSS”: the “polyreactivity (PSR sort gate)” value is recorded as “low polyreactivity”. To “QVQLVESGGGLVQGGGSLSLSCAASGSNFWRYAMGWYRQAPGKEMELVAVISDRGCITYYADSVKGRFTISRDNAKNTVYLQMNSLKPEDTAVYYCNAVDSDRSDPSEYDYWGQGTQVTLSS” belongs “low polyreactivity”; to “QVQLVESGGGLVQPGGSLRLSCAASGFIFLGYAMGWYRQAPGKERELVATITWRGGSTYYADSVKGRFTISRDNAKNTVYLQMNSLIPEDTADYYCAATRGWLHSFARDDHDYWGQGTQVTVSS”, “high polyreactivity”; to “QVQLVESGGGLVQPGGSLRLSCAASGFIFSYYVMGWYRQAPGKERELVAAITTSGDSTYYADSVKGRFTISRDNAKNSVYLQMNSLKPEDTAVYYCNTVYRYRYYWGQGTHVTVSS”, “high polyreactivity”. To “QVQLVESGGGLVQPGGSLRLSCAASGFTFYLYALGWYRQAPVKERELVASISSGGRTYYADSVKGRFTISRDNAKNTVYVQMNRLKPADTAVYYCAARRPAWYWSAYRYYSEMDYWGQGTQVTVSS” belongs “high polyreactivity”; to “QVQLVESGGGLVQPGGSLRLSCAASGRIFYYYAMGWYRQAPGKERELVAAITWNGTSTYYADSVKGRFTISRDNAKNTVYLQMNSLKPEDTAVYYCAKSLRAYRHVIYGKPFYSWGQGTQVTVSS”, “low polyreactivity”. Regarding “QVQLVESGGGLVQPGGSLRLSCAASGSIFIVYAMGWYRQAPGQERELVAGISVRTGSTYYADSVKGRFTISRDNAKNTGYLQMNSLKPEDTAVYYCAAPGYTGLGRNYWGQGTQVTVSS”, the “polyreactivity (PSR sort gate)” value is on record as “low polyreactivity”. To “QVQLVESGGGLVQPGGSLRLSCAASGSIFPYYAKGWYRKAPGKERELVADITSSGGSTYYADSVMGRFTISRDNAKNTVYLQMNSLKPEDTAVYYCAADGAVVSSSRKFGYWGQGTQVTVSS” belongs “low polyreactivity”; to “QVQLVESGGGLVQPGGSLRLSCAASGSIFTRNAMGWYRQAPGKERELVAAITKRGGSTYYADSVKGRFTISRDNAKNTVYLQMNSLKPEETAVYSCAADVYKYKHTQEYHVGRMDYWGQGTQVTVSS”, “low polyreactivity”. For the sequence “QVQLVESGGGLVQPGGSLRLSCAASGSNFEPYAMGWYRQAPGKERELVAAISSGGSTNYADSVKGRFTISRDNAKNTVYLQMNSLKPEDTAVYFCAAAYYTVGWLFYDYWYPFAYYYWGQGTQVTVSS”, the “polyreactivity (PSR sort gate)” value is given as “low polyreactivity”. To “QVQLVESGGGLVQPGGSLRLSCAASGSTFLVYAMGWYRQAPGKERELVAVIDNGGDTYYADSVKGRFTISRDNAKNTVYLPMNSMKPEDTEVYYCAADLSYLGYCEYDYWGQGTQVNVSS” belongs “low polyreactivity”. To “QVQLVESGGGLVQPGGSLRLTCAAYGFIFGYNSMGWYSQAPGKERELVAAISSGGSTYYADSVNGLFTISRDNAKNTVYLQMNSVKPDDTAVYYCAVELGYPIQSDALWWDFEYWGQGTQVTVSS” belongs “low polyreactivity”. To “QVQLVESGGGLVQPRGSLRLSCAASGSILGHYAMGWYRQAPGKERELVAAISWRGGTTYYADSVKGRFTISRDNAKNTVYLQMNSLKPEDTAVYYCNADVWVYPYDYWGQGTQVTVSS” belongs “low polyreactivity”. For “QVQLVESGGGLVQSGGSHPLSCAASGRTFYSYAMRGYRQAPGKDSEFVAAIRRCGSSTYYADSVKGRFTISRDNAKNTVYLQMNSLKPEDTAVYYCNAAPYIYPIRGNYWGQGTQETVSS”, the “polyreactivity (PSR sort gate)” value is “high polyreactivity”. To “QVQLVESGGGLVQSGGSLRLSCAASGCIFSKNAMGWYRPAPGKERELVAAISWSGGSTSYADSVKGRFTISRDNAKNTVYLQMNSLKPEDTAVYYCARVGAIPSRYGYWGQGTQVTVSS” belongs “high polyreactivity”; to “QVQLVESGGGLVQSGGSLRLSCAASGFIFEAYAMGWYRQAPGKEMELVAAISSGGSTKYADSVKGRFTISRDNAKNSVYLQMNSLKPEDTAVYYCAKSSWTYGAYNYLGQGTQVTVSS”, “high polyreactivity”. To “QVQLVESGGGLVQSGGSLRLSCAASGFTFRFYAMGWYSQAPGKEREMVAAITSSGGSTFYADSVKGRFTISRDNAKNTVYLQMNSLKPEDTAVYYCAASVGREVGWGQGTQVTVSS” belongs “high polyreactivity”; to “QVQLVESGGGLVQSGGSLRLSCAASGFTLYYYAMGWYRQAPGKERELVARISGSSGRTYYADSVKGRFTISRDNAMNTFYLQMNSLKPEDTAVYFCAARYYTSATMDYWGQGTQVTVSS”, “high polyreactivity”; to “QVQLVESGGGLVQSGGSLRLSCAASGIIFSRNAMGWYRQAPGKERELVAGITSSGGTTYYADSVKGRFTISRDNAKNTVYLQMNSLKPEDTAVYYCAAYSTQNYSYRRYYYWGQGTQVTVSS”, “high polyreactivity”.

With “QVQLVESGGGLVQSGGSLRLSCAASGITFDHYAMGWYRQAPGKERELVAAISVSGGRTYYADSVKGRFTISRDNAKNTVYLQMNSLKPEDTAVYYCAKVSQVRGFYYWGQGTQVTVSS”, the “polyreactivity (PSR sort gate)” value is on record as “high polyreactivity”. Turning to “QVQLVESGGGLVQSGGSLRLSCAASGITLRRNAMVWYRQAPGKERELVASISSRGGTTYYADSVKGRFTISRDNAKNTDYLQMISQKPEDTAVYYCAAYRVQRLANTGYDYWGQGTQVTVSS”, the “polyreactivity (PSR sort gate)” value was “high polyreactivity”.

On to “QVQLVESGGGLVQSGGSLRLSCAASGLTFKENVMGWYRQAPGKERELVAAISTGASTYYADSVKGRFTISRDNAKNTVYLQMNSLKPEDTAVYYCAKRVTRWYGYWGQGTQVTVSS”, for which the “polyreactivity (PSR sort gate)” value is “high polyreactivity”. To “QVQLVESGGGLVQSGGSLRLSCAASGLTFMVYAMGWYRQAPGKEREFVAAITFSGGRTYYADSVKGRFTISRDNAKNTVYLQMNSLKPEDTAVYYCNAEAWSLGYDYWGQGTQVTVSS” belongs “low polyreactivity”; to “QVQLVESGGGLVQSGGSLRLSCAASGRIFDYNAMGWYRQAPGKERELVAAINSGGSTYADSVKGRFTISRDNAKNTVYLQMNSLKPEDTAVYYCNATPQFATFTYDYCGQGTQVTVSS”, “low polyreactivity”; to “QVQLVESGGGLVQSGGSLRLSCAASGRIFNIYAMGWYRPAPGKERELVAAISGSGGRTSYADSVKGRFTISRDNAKNTVYLQMNSLKPEDTAVYYCAADYSFYTSFRYDYWGQGTQVTVSS”, “low polyreactivity”.

“QVQLVESGGGLVQSGGSLRLSCAASGRISYYYAMGWYRQAPGKERELVARISKSGGSTYYADSVKGRFTISRDNAKNTVYLQMNSLKPVVTAVYFCAARWKTGYNYWGEGTQVTVSS”: the “polyreactivity (PSR sort gate)” value is on record as “high polyreactivity”.

With “QVQLVESGGGLVQSGGSLRLSCAASGRTFRYYAMGWYRQAPGKERELVAAISWNGANTYYADSVKGRFTISRDNAKNTVYLQMNSLKPEDTAVYYCAATYYRWKGYDYWGQGTQVNVSS”, the “polyreactivity (PSR sort gate)” value is reported as “high polyreactivity”. To “QVQLVESGGGLVQSGGSLRLSCAASGRTIGAYAMGWYRQAPGKEREFVAAITFGGGPTYYADSVKGRFTISRDNAKNTVYLQMNSLKPEDTAVYYCAKRIDLSFPFARYDYWGQGTQVTVSS” belongs “low polyreactivity”.

Consider “QVQLVESGGGLVQSGGSLRLSCAASGSTFTSNTMGCYRQAPGKESEIVAGITWRGGSTYYADSVKGRFTISRDNAKNTVYLQMNSLKPEDTAVYYCAAYGYSKDVWNFYYWGQGTQVTVSS”, for which the “polyreactivity (PSR sort gate)” value is recorded as “low polyreactivity”.

As for “QVQLVESGGGLVQSGGSLRLSCAASGSTVDDNAMGWSRQAPGQVMELVAAIDTSGGSTYADSVKGRFTISRYNAKNTVYLQMNSQKPEDTAVYYCAKPFSSNSWSHGYWGQGTQVTVSS”, the “polyreactivity (PSR sort gate)” value was “low polyreactivity”. To “QVQLVESGGGLVQSGGSLRLSCVASGRTFRWYPMGWYRQEPGKERELVATITLNGGSTYYADSVKGRFTISRDNEKNTVYLQMNSLKPEDTAVYYCNRGTNVVRRGVYSFGYDYWGHGTQVTVSS” belongs “low polyreactivity”; to “QVQLVESGGGLVQSGGSLRLTCAASGFTFYDYDMGWYRQAPGKERELVATITWSVGRTYYADSVKGRFTISRDTAKNTVYLQMNSLKPEDTAVYYCAADEPDRDYGYWGQGTQVTVSS”, “low polyreactivity”; to “QVQLVESGGGLVQSGGSLRLTCAASGSIIRYYTMGWYRQAPGKERELVATITQSGGSTYYADSVKGRFTISRDNAKNTVYLQINSLKPEDTAVYYCAALVRRGFRLYGSWGQGTQVTVSS”, “high polyreactivity”. To “QVQLVESGGGLVQSGGTLRLSCAASGFTFYWYAMGWYRQAPGKEREMVAAITRGGRTYYEDSVKGRFTITRDNAKNTVYLQMNSLKPEDNAVYYCYAYVSWYRTVRTKYDYWGQGTQVTVSS” belongs “high polyreactivity”. For the sequence “QVQLVESGGGLVQSGGTLRLSCAASGSTFYVNAMGWYRLAPGKERELVAAINYSGGNTYYADSVKGRFTFSRDNAKNTVYLQMNTLKQEDTAVYYCAVDLIIKGYPWWIEDDYWGQGTQVTVSS”, the “polyreactivity (PSR sort gate)” value is “high polyreactivity”. To “QVQLVESGGGLVQTGGSLRLSCAASGLTLYVYAMGWYRQAPGKERELVASITSGGSTNYADSVKGRFTISRDNAKNTVYLQMNSLKPEDTAVYYCAAETDTVYDWIAPYVTYDYWGQGTQVTVSS” belongs “low polyreactivity”; to “QVQLVESGGGLVQTGGSLRLSCAASGRTFGYNAMGWYRQAPGKERELVASISYSGGSTYYADSVKGRFTISRDNAKNTVYLQMNSLKPEDTAVYYCAAKYWYWQSPSKYYYWGQGTQVTVSS”, “high polyreactivity”. To “QVQLVESGGGLVQTGGSLRLSCAASGSTYYYYAMGWSRPAPGKERELVAGISWGGGSTYFADSVKGRFTISRDNAMNSVYLQMNSLKPEDTAVYYCNALNPKSYDYWGQGTQVTVSS” belongs “low polyreactivity”; to “QVQLVESGGGLVQVGGSLRLSCAASGITLSYYAMGWYRQAPGKERELVASITVSRTSTYYADSVKGRFTISRDNAKNSVYLQMNSLKPEDTAVYYCAAYAYQYRFSGYGYWGQGTQVTVSS”, “low polyreactivity”.

“QVQLVESGGGLVQVGGSLRLSCDASGITLSYYAMGWYRQAPGKVRELVASITVSRTSTYYADSVKRRFTISRDNAKNTVYLQMNSLKPEDTAVYYCAAYAFQYRFSGYGYWGQGTQVTVSS”: the “polyreactivity (PSR sort gate)” value is given as “low polyreactivity”.
